# T1: His-tagged MuSK ectodomain (UniProt Q61006 22-494)
# T1 sequence (looked up): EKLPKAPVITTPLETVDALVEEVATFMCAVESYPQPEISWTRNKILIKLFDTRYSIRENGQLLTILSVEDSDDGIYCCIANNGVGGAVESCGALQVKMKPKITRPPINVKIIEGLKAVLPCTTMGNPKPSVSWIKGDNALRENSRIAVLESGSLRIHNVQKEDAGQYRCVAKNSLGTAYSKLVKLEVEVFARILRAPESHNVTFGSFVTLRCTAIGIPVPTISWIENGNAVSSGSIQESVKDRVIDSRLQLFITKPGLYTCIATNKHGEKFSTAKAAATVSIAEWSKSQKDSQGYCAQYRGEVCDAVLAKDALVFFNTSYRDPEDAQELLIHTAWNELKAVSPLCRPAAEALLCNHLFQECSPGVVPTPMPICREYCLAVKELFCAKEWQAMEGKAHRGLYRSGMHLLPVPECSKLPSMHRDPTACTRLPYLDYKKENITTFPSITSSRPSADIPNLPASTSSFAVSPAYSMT
# T2: full-length Fc-fusion MuSK ectodomain (UniProt Q61006 22-494)
# T2 sequence (looked up): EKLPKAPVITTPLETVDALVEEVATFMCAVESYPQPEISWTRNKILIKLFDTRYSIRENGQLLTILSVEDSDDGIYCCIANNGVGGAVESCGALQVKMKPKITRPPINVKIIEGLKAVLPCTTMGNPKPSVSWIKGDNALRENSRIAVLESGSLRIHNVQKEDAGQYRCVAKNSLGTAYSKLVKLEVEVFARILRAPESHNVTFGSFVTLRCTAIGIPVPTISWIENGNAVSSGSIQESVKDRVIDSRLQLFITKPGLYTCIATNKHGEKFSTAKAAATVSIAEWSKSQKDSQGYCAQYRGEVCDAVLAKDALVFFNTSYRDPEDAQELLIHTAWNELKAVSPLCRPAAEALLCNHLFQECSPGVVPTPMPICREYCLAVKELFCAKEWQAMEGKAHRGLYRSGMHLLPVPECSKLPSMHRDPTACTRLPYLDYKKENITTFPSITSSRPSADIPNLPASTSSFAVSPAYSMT
# How the values were obtained:
# [1] = target: T1, His-tagged MuSK ectodomain; assay: SPR
# [2] = target: T2, full-length Fc-fusion MuSK ectodomain; assay: ELISA
Kd [1] [nM],EC50 [2] [nM],Binder
5.6,,"recombinant human BMP2 (ligand, UniProt P12643 283-396, looked up) QAKHKQRKRLKSSCKRHPLYVDFSDVGWNDWIVAPPGYHAFYCHGECPFPLADHLNSTNHAIVQTLVNSVNSKIPKACCVPTELSAISMLYLDENEKVVLKNYQDMVVEGCGCR"
,~30,"recombinant human BMP4 (ligand, UniProt P12644 293-408, looked up) SPKHHSQRARKKNKNCRRHSLYVDFSDVGWNDWIVAPPGYQAFYCHGDCPFPLADHLNSTNHAIVQTLVNSVNSSIPKACCVPTELSAISMLYLDEYDKVVLKNYQEMVVEGCGCR"
11.8,,"recombinant human BMP7 (ligand, UniProt P18075 293-431, looked up) STGSKQRSQNRSKTPKNQEALRMANVAENSSSDQRQACKKHELYVSFRDLGWQDWIIAPEGYAAYYCEGECAFPLNSYMNATNHAIVQTLVHFINPETVPKPCCAPTQLNAISVLYFDDSSNVILKKYRNMVVRACGCH"

# Source: article PMC5242376 (Science signaling, 2016)
